{
  "source": "paper PMC9619061",
  "key": {"[1]": {"biological_target": "Coproheme decarboxylase from Geobacillus stearothermophilus (HemQ), His-tag completely cleaved (Geobacillus stearothermophilus)", "test": "cryo-EM structure; single particle reconstruction, purified protein on glow-discharged gold Quantifoil R 1.2/1.3 grids, 50 mM HEPES pH 7.5, 100 mM NaCl; C5 and C1 symmetry"}, "[2]": {"biological_target": "Coproheme decarboxylase from Geobacillus stearothermophilus (HemQ), His-tag completely cleaved (Geobacillus stearothermophilus)", "test": "SEC; Superdex 200 10/300, 1 ml/min, 50 mM HEPES pH 7.5, 100 mM NaCl; elution volume compared with the mass of a pentamer"}, "[3]": {"biological_target": "Coproheme decarboxylase from Geobacillus stearothermophilus (HemQ), His-tag partially cleaved (Geobacillus stearothermophilus)", "test": "cryo-EM structure; single particle reconstruction, purified protein on glow-discharged gold Quantifoil R 1.2/1.3 grids, 50 mM HEPES pH 7.5, 100 mM NaCl; C5 and C1 symmetry"}, "[4]": {"biological_target": "Coproheme decarboxylase from Geobacillus stearothermophilus (HemQ), His-tag partially cleaved (Geobacillus stearothermophilus)", "test": "SEC; Superdex 200 10/300, 1 ml/min, 50 mM HEPES pH 7.5, 100 mM NaCl; elution volume compared with the mass of a pentamer"}, "[5]": {"biological_target": "Coproheme decarboxylase from Geobacillus stearothermophilus (HemQ), His-tag present in all copies (Geobacillus stearothermophilus)", "test": "cryo-EM structure; single particle reconstruction, purified protein on glow-discharged gold Quantifoil R 1.2/1.3 grids, 50 mM HEPES pH 7.5, 100 mM NaCl; C5 and C1 symmetry"}, "[6]": {"biological_target": "Coproheme decarboxylase from Geobacillus stearothermophilus (HemQ), His-tag present in all copies (Geobacillus stearothermophilus)", "test": "SEC; Superdex 200 10/300, 1 ml/min, 50 mM HEPES pH 7.5, 100 mM NaCl; elution volume compared with the mass of a pentamer"}},
  "data": [
    {"substance": "Coproheme decarboxylase from Geobacillus stearothermophilus (HemQ), His-tag completely cleaved (enzyme)", "values": [
      {"measurement": "stoichiometry N", "setting": "[1]", "result": 5},
      {"measurement": "stoichiometry N", "setting": "[2]", "result": 5}
    ]},
    {"substance": "Coproheme decarboxylase from Geobacillus stearothermophilus (HemQ), His-tag partially cleaved (enzyme)", "values": [
      {"measurement": "stoichiometry N", "setting": "[3]", "result": 5},
      {"measurement": "stoichiometry N", "setting": "[4]", "result": 5}
    ]},
    {"substance": "Coproheme decarboxylase from Geobacillus stearothermophilus (HemQ), His-tag present in all copies (enzyme)", "values": [
      {"measurement": "stoichiometry N", "setting": "[5]", "result": 5},
      {"measurement": "stoichiometry N", "setting": "[6]", "result": 5}
    ]}
  ]
}
